Test results as given in article PMC3222833 (Journal of medicinal chemistry, 2011).
“And” between values parts separate entries of the source, which are not always exact repeats. Equal values may be shown once. Residues, ends and D or L forms follow the SMILES beside them.

Tests used:
[1] = molecular target: rhGCPII(K699S) mutant (Homo sapiens, UniProt Q04609, K699S); assay: Saturation kinetics of substrate hydrolysis by mutated GCPII; type: biochemical; settings: kinetic assay
[2] = molecular target: T1, recombinant human GCPII (rhGCPII) (Homo sapiens, UniProt Q04609); assay: Saturation kinetics of dipeptide hydrolysis by wild-type rhGCPII; type: biochemical; settings: ratio of catalytic efficiency
[3] = system: rhGCPII; settings: WT rhGCPII, radioenzymatic assay with 3H-NAAG; cited from earlier work
[4] = molecular target: T1, recombinant human GCPII (rhGCPII); settings: cited from earlier work
[5] = system: CCCCCC(NC(=O)[C@H](CC(=O)O)NC(C)=O)C(=O)O; assay: Saturation kinetics of dipeptide hydrolysis by wild-type rhGCPII; type: biochemical, human; settings: other: wild-type rhGCPII, Table 1; 37.0 °C
[6] = system: CCCC[C@H](NC(=O)[C@H](CC(=O)O)NC(C)=O)C(=O)O; assay: as above; type: biochemical, human; settings: other: wild-type rhGCPII, Table 1; 37.0 °C
[7] = system: CCC[C@H](NC(=O)[C@H](CC(=O)O)NC(C)=O)C(=O)O; assay: as above; type: biochemical, human; settings: other: wild-type rhGCPII, Table 1; 37.0 °C
[8] = system: CC(=O)N[C@@H](CC(=O)O)C(=O)N[C@@H](C)C(=O)O; assay: as above; type: biochemical, human; settings: other: wild-type rhGCPII, Table 1; 37.0 °C
[9] = system: CCCCCCC(NC(=O)[C@H](CC(=O)O)NC(C)=O)C(=O)O; assay: as above; type: biochemical, human; settings: other: wild-type rhGCPII, Table 1; 37.0 °C
[10] = system: CC[C@H](NC(=O)[C@H](CC(=O)O)NC(C)=O)C(=O)O; assay: as above; type: biochemical, human; settings: other: wild-type rhGCPII, Table 1; 37.0 °C
[11] = system: CSCC[C@H](NC(=O)[C@H](CC(=O)O)NC(C)=O)C(=O)O; assay: as above; type: biochemical, human; settings: other: wild-type GCPII, Table 2; 37.0 °C
[12] = system: CCCCCCCC(NC(=O)[C@H](CC(=O)O)NC(C)=O)C(=O)O; assay: as above; type: biochemical, human; settings: 37.0 °C
[13] = other: wild-type GCPII, Table 2
[14] = other: wild-type rhGCPII, Table 1

T1 sequence (Q04609 44-750): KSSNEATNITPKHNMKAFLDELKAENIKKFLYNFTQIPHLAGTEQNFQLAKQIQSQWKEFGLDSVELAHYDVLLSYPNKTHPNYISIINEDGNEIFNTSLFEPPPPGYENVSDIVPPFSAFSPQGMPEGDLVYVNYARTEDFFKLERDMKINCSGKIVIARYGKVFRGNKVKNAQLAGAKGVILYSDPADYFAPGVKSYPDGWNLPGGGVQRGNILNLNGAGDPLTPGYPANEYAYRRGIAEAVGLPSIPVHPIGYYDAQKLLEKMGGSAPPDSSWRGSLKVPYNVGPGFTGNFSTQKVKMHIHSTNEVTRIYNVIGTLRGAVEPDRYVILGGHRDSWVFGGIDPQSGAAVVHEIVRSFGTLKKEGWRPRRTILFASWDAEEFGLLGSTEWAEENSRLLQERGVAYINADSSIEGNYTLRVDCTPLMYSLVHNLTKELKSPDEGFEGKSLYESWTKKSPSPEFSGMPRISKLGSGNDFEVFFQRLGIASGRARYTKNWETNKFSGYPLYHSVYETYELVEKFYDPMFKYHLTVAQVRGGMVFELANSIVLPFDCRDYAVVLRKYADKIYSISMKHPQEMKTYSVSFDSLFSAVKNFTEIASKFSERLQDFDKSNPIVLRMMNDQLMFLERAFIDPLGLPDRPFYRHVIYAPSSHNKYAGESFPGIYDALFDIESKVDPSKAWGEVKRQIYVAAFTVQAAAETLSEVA
Sequence of rhGCPII(K699S) mutant (Q04609 44-750 K699S): as the sequence (Q04609 44-750) above, with K656S counted along it

CCCCCCCC(NC(=O)[C@H](CC(=O)O)NC(C)=O)C(=O)O (some centres unmarked) [8S, Ac-Asp-Ano]
stronger binding to K699S mutant compared to wild-type GCPII [1]: approximately 3 fold | efficiency of rhGCPII hydrolysis compared to Ac-Asp-Ala [2]: approximately 20 fold

CC(=O)N[C@@H](CC(=O)O)C(=O)N[C@@H](CCC(=O)O)C(=O)O [NAAG, N-acetyl-aspartyl-glutamate] (Ac-Asp-Glu-OH)
Km [3]: 1.2 ± 0.5 µM | kcat [3]: 1.1 ± 0.2 ^# s^-1 and 1.1 ± 0.2 ^* s^-1

CSCC[C@H](NC(=O)[C@H](CC(=O)O)NC(C)=O)C(=O)O [NAAM, N-acetyl-aspartyl-methionine] (Ac-Asp-Met-OH)
Km [4]: 24.8 ± 2.9 µM

recombinant human GCPII (rhGCPII) (Homo sapiens)
Km [5]: 12 ± 1 µM | kcat [5]: 0.44 ± 0.04 s⁻¹ | kcat/Km [5]: 36700 M⁻¹ s⁻¹ | Km [6]: 19 ± 4 µM | kcat [6]: 0.24 ± 0.01 s⁻¹ | kcat/Km [6]: 12600 M⁻¹ s⁻¹ | Km [7]: 31 ± 12 µM | kcat [7]: 0.42 ± 0.05 s⁻¹ | kcat/Km [7]: 13500 M⁻¹ s⁻¹ | Km [8]: 85 ± 21 µM | kcat [8]: 0.23 ± 0.05 s⁻¹ | kcat/Km [8]: 2700 M⁻¹ s⁻¹ | Km [9]: 8 ± 2 µM | kcat [9]: 0.6 ± 0.03 s⁻¹ | kcat/Km [9]: 75000 M⁻¹ s⁻¹ | Km [10]: 29 ± 8 µM | kcat [10]: 0.25 ± 0.03 s⁻¹ | kcat/Km [10]: 8600 M⁻¹ s⁻¹ | Km [11]: 7.5 ± 1.6 µM | kcat [11]: 0.32 ± 0.07 s⁻¹ | kcat/Km [11]: 42700 M⁻¹ s⁻¹ | Km [12, 13]: 10.4 ± 2.5 µM | kcat [12, 13]: 0.62 ± 0.10 s⁻¹ | kcat/Km [12, 13]: 59600 M⁻¹ s⁻¹ | Km [12, 14]: 10 ± 2 µM | kcat [12, 14]: 0.62 ± 0.1 s⁻¹ | kcat/Km [12, 14]: 62000 M⁻¹ s⁻¹
